# Measurements reported in the supplement of paper PMC10724198.
# ± gives the standard deviation of the averaged measurements.
# How the values were obtained:
# [1] = test system: Saccharomyces cerevisiae; assay: protein stability index of tFT-peptide fusion (C-terminal peptide) (PSI (0-1 scale)); higher = more stable (slower turnover)
# Protocol: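 MPS profiling in S. cerevisiae of the tFT-X12 degron library: putative degron peptides plus stable controls, 12 aa, fused to the C-terminus of a sfGFP-mCherry timer. Cells are FACS-sorted into 8 mCherry/sfGFP bins and deep-sequenced. PSI runs from 0 (unstable) to 1 (stable). Backgrounds are wild type, das1Δ and doa10Δ at 30 °C, and wild type, das1Δ, cdc34-1 and cdc53-1 at 37 °C; 2-3 technical replicates each.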
# [2] = test system: Saccharomyces cerevisiae; assay: as above; conditions: genetic background: wild type; temperature: 30 C
# [3] = genetic background: cdc34-1, temperature: 37 C
# [4] = genetic background: cdc53-1, temperature: 37 C
# [5] = genetic background: das1 deletion, temperature: 30 C
# [6] = genetic background: das1 deletion, temperature: 37 C
# [7] = genetic background: doa10 deletion, temperature: 30 C
# [8] = genetic background: wild type, temperature: 30 C
# [9] = genetic background: wild type, temperature: 37 C
# 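Also: PSI is a weighted mean of sequencing reads over stability bins, variants kept only with over 10 reads, mCherry proximal and sfGFP distal, peptide attached via GGGS linker.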
Sequence,"protein stability index [1, 3]","protein stability index [1, 4]","protein stability index [1, 5]","protein stability index [1, 6]","protein stability index [1, 7]","protein stability index [1, 8]","protein stability index [1, 9]",protein stability index [2]
FYVIFRRACLSV,0.281 ± 0.0084,0.32 ± 0.016,0.234 ± 0.03,0.3605 ± 0.0029,0.1681 ± 0.00044,0.195 ± 0.0079,0.299 ± 0.0099,0.292 ± 0.077
GACGLGMLIFIV,0.585 ± 0.04,0.618 ± 0.03,0.427 ± 0.026,0.623 ± 0.015,0.256 ± 0.012,0.29 ± 0.02,0.511 ± 0.017,0.411 ± 0.0075
GAPIFSSFLLFC,0.541 ± 0.054,0.652 ± 0.022,0.579 ± 0.032,0.667 ± 0.012,0.332 ± 0.028,0.31 ± 0.028,0.5425 ± 0.0023,0.412 ± 0.026
GARCFGFFCFLV,0.4284 ± 0.0039,0.507 ± 0.027,0.447 ± 0.032,0.582 ± 0.011,0.127 ± 0.0078,0.115 ± 0.017,0.169 ± 0.0064,0.207 ± 0.011
GCIFGNVVFVRV,0.602 ± 0.031,0.6098 ± 0.0023,0.424 ± 0.03,0.6335 ± 0.0023,0.433 ± 0.02,0.433 ± 0.022,0.611 ± 0.0075,0.472 ± 0.062
GCIMHLTIYVRD,0.302 ± 0.03,0.3761 ± 0.0008,0.265 ± 0.026,0.439 ± 0.032,0.2235 ± 0.0014,0.26 ± 0.028,0.4088 ± 0.0016,0.322 ± 0.0096
GCPRSWSFNIYV,0.686 ± 0.046,0.739 ± 0.0099,0.665 ± 0.013,0.742 ± 0.018,0.182 ± 0.018,0.199 ± 0.022,0.463 ± 0.013,0.408 ± 0.04
GCRSLRLWLTFS,0.638 ± 0.018,0.7023 ± 0.0065,0.628 ± 0.02,0.726 ± 0.013,0.299 ± 0.0033,0.312 ± 0.015,0.551 ± 0.024,0.443 ± 0.029
GCVVVLIPVVSA,0.333 ± 0.014,0.338 ± 0.0038,0.249 ± 0.038,0.415 ± 0.0087,0.215 ± 0.0045,0.266 ± 0.015,0.381 ± 0.0088,0.382 ± 0.022
GEAYVYLFVYSC,0.4329 ± 0.0022,0.467 ± 0.0051,0.276 ± 0.036,0.541 ± 0.019,0.16 ± 0.012,0.173 ± 0.017,0.387 ± 0.0098,0.25 ± 0.0051
GEWCLPLRLVVY,0.061 ± 0.013,0.0685 ± 0.024,0.185 ± 0.021,0.201 ± 0.011,0.137 ± 0.01,0.172 ± 0.02,0.174 ± 0.012,0.22 ± 0.043
GFCVRIFHGFLH,0.634 ± 0.0084,0.7 ± 0.044,0.649 ± 0.018,0.7197 ± 0.0045,0.215 ± 0.0082,0.251 ± 0.04,0.501 ± 0.014,0.351 ± 0.01
GFDVFWLWVVVA,0.0676 ± 0.024,0.208 ± 0.017,0.192 ± 0.032,0.307 ± 0.022,0.0812 ± 0.011,0.103 ± 0.027,0.0966 ± 0.015,0.125 ± 0.019
GFRMACYIRVLS,0.337 ± 0.015,0.38 ± 0.017,0.245 ± 0.046,0.445 ± 0.0051,0.175 ± 0.01,0.182 ± 0.026,0.286 ± 0.02,0.296 ± 0.016
GFSFVCFSPFLF,0.667 ± 0.041,0.779 ± 0.02,0.65 ± 0.0058,0.745 ± 0.011,0.3864 ± 0.0023,0.41 ± 0.02,0.5401 ± 0.001,0.42 ± 0.038
GFVRTVWLMCYV,0.286 ± 0.027,0.341 ± 0.017,0.285 ± 0.025,0.417 ± 0.013,0.129 ± 0.017,0.161 ± 0.012,0.203 ± 0.013,0.245 ± 0.032
GFWLAFLWYRES,0.386 ± 0.067,0.507 ± 0.021,0.34 ± 0.035,0.548 ± 0.016,0.222 ± 0.015,0.248 ± 0.036,0.433 ± 0.033,0.4406 ± 0.0022
GGAVGVRGGCRG,0.565 ± 0.12,0.7112 ± 0.0027,0.496 ± 0.017,0.635 ± 0.036,0.522 ± 0.05,0.512 ± 0.027,0.607 ± 0.026,0.452 ± 0.033
GGCILYFCMSIV,0.411 ± 0.021,0.492 ± 0.0065,0.387 ± 0.029,0.505 ± 0.011,0.371 ± 0.0097,0.374 ± 0.0063,0.472 ± 0.026,0.4 ± 0.026
GGGSRICIVRLS,0.654 ± 0.092,0.7229 ± 0.0024,0.636 ± 0.017,0.722 ± 0.0083,0.178 ± 0.025,0.197 ± 0.023,0.406 ± 0.03,0.337 ± 0.077

Sequence,"protein stability index [1, 3]","protein stability index [1, 4]","protein stability index [1, 5]","protein stability index [1, 6]","protein stability index [1, 7]","protein stability index [1, 8]","protein stability index [1, 9]",protein stability index [2]
GGGVRWGVLVLG,0.527 ± 0.007,0.606 ± 0.032,0.4 ± 0.035,0.599 ± 0.013,0.346 ± 0.017,0.391 ± 0.036,0.553 ± 0.012,0.474 ± 0.011
GGLGIVWLWLVV,0.344 ± 0.021,0.42 ± 0.024,0.307 ± 0.033,0.4926 ± 0.0048,0.234 ± 0.016,0.282 ± 0.02,0.467 ± 0.016,0.378 ± 0.047
GGLRILLRLVWT,0.471 ± 0.052,0.47 ± 0.014,0.377 ± 0.033,0.488 ± 0.008,0.381 ± 0.011,0.345 ± 0.045,0.471 ± 0.014,0.454 ± 0.025
GGWVIVFMVGRG,0.523 ± 0.049,0.629 ± 0.084,0.362 ± 0.033,0.5982 ± 0.002,0.334 ± 0.0065,0.3607 ± 0.0035,0.535 ± 0.02,0.427 ± 0.02
GIALYVCFICVG,0.213 ± 0.0051,0.364 ± 0.013,0.253 ± 0.017,0.4325 ± 0.0026,0.137 ± 0.026,0.17 ± 0.015,0.276 ± 0.012,0.245 ± 0.05
GIIRVSSQVIVR,0.565 ± 0.0072,0.607 ± 0.018,0.445 ± 0.026,0.617 ± 0.0065,0.422 ± 0.012,0.443 ± 0.0097,0.5905 ± 0.0054,0.523 ± 0.035
GLCLMICVLCFV,0.207 ± 0.0085,0.315 ± 0.023,0.244 ± 0.027,0.382 ± 0.0052,0.214 ± 0.00016,0.23 ± 0.027,0.337 ± 0.023,0.299 ± 0.0039
GLCSFPCSSCRL,0.875 ± 0.023,0.8868 ± 0.0025,0.76 ± 0.018,0.812 ± 0.028,0.772 ± 0.024,0.772 ± 0.054,0.836 ± 0.021,0.756 ± 0.052
GLCVGRMFVRQI,0.6614 ± 0.0031,0.7126 ± 0.0054,0.661 ± 0.018,0.7222 ± 0.005,0.248 ± 0.0031,0.263 ± 0.026,0.5463 ± 0.0024,0.454 ± 0.011
GLFWWVWAGFFC,0.7005 ± 0.0052,0.7681 ± 0.0013,0.583 ± 0.023,0.8189 ± 0.0055,0.428 ± 0.025,0.421 ± 0.018,0.624 ± 0.056,0.436 ± 0.011
GLGFFMSFCFFL,0.554 ± 0.015,0.579 ± 0.031,0.477 ± 0.06,0.567 ± 0.011,0.474 ± 0.0077,0.4562 ± 0.0037,0.55817 ± 0.00049,0.484 ± 0.036
GLLAWGCVFWVV,0.402 ± 0.037,0.52 ± 0.01,0.336 ± 0.048,0.544 ± 0.01,0.167 ± 0.015,0.198 ± 0.017,0.3379 ± 0.00092,0.259 ± 0.014
GLLGRSRLIFYN,0.721 ± 0.026,0.8063 ± 0.0023,0.661 ± 0.013,0.788 ± 0.01,0.427 ± 0.0058,0.458 ± 0.018,0.666 ± 0.0092,0.517 ± 0.088
GLVAGVYVGSGL,0.7099 ± 0.0059,0.759 ± 0.011,0.629 ± 0.036,0.741 ± 0.0076,0.648 ± 0.031,0.616 ± 0.013,0.721 ± 0.01,0.701 ± 0.02
GMCRVELIATCG,0.368 ± 0.039,0.409 ± 0.018,0.276 ± 0.036,0.453 ± 0.011,0.229 ± 0.0046,0.28 ± 0.026,0.4381 ± 0.0011,0.307 ± 0.031
GMGYISVVVWSH,0.0293 ± 0.0072,0.1 ± 0.029,0.141 ± 0.046,0.2283 ± 0.00048,0.104 ± 0.015,0.114 ± 0.017,0.155 ± 0.017,0.208 ± 0.0092
GQLKGKDETEKK,0.7023 ± 0.005,0.749 ± 0.027,0.616 ± 0.023,0.769 ± 0.029,0.645 ± 0.027,0.655 ± 0.051,0.691 ± 0.0094,0.191 ± 0.021
GRHRRYLLLPVH,0.487 ± 0.029,0.5232 ± 0.0027,0.369 ± 0.028,0.541 ± 0.0057,0.308 ± 0.0055,0.35 ± 0.019,0.485 ± 0.013,0.419 ± 0.015
GRSVLIGLIVRC,0.417 ± 0.015,0.433 ± 0.014,0.332 ± 0.048,0.53715 ± 0.00026,0.437 ± 0.023,0.349 ± 0.022,0.479 ± 0.0083,0.4701 ± 0.0034
